This is an account of results in article PMC3017119, “Structural Basis for the Recognition of Cellular mRNA Export Factor REF by Herpes Viral Proteins HSV-1 ICP27 and HVS ORF57” (PLoS Pathogens, 2011).

The test system of experiment [1] is REF^156–218 (REF2-I C-terminal domain). As to the kind of experiment: NMR 1H-15N correlation spectra of 15N-labelled REF^156–218 with added viral protein constructs. Type of experiment: binding, murine. Particulars: 2-fold excess of viral construct; 15N-HSQC.
A further experiment has as its system GST-REF2-I. The experiment is described as follows: GST-REF2-I pull down of 35S-radiolabelled ICP27 fragments. Type of experiment: binding, murine. Particulars: 35S-radiolabelled protein from rabbit reticulocytes, glutathione beads, RB100 buffer pH 7.5, 10 µg/ml RNAse A; SDS-PAGE, PhosphoImage. The text has this:
To confirm the position of REF-binding domains within ICP27 and ORF57 and to minimise the size of constructs for more detailed NMR mapping, a series of fragments derived from HSV-1 ICP27 were screened for binding to GST-REF2-I using pull down assays (Fig. 1). […] The REF-binding fragment of ORF57 aa 8–120 identified previously similarly interacted with the same fragments of REF (Fig. 1D).
Figure 1 Identification of regions for the interactions between REF and ICP27/ORF57. (A) Subdivision of ICP27, ORF57 and REF2-I in fragments. […] (C) Fusion of the ICP27^103–138 peptide to GST allows a specific pull down of REF, REF^1–155 (NM) and REF^54–155 (Δ53) and a very weak pull down of the REF^1–70 (N); no interaction is detected with the control Ras protein. (D) Same pull down assay as panel C but using GST fusion of ORF57 aa 8–120 in place of ICP27.
GST or GST protein fusions were first immobilised on 30 µl slurry glutathione-coated beads (GE Healthcare) before 8 µl ^35S-radiolabelled proteins synthesised in rabbit reticulocytes (Promega) were added to the binding reactions in RB100 buffer (25 mM HEPES pH 7.5/100 mM KOAc/10 mM MgCl2/1 mM DTT/0.05% Triton X-100/10% glycerol) in presence of 10 µg/ml RNAse A. Washed and eluted protein complexes were resolved on 15% SDS-PAGE stained with Coomassie blue and analysed by PhosphoImage. […]

B1: ICP27^1–138: recombinant fragment aa 1–138 of HSV-1 ICP27 (protein)
chain: MATDIDMLIDLGLDLSDSDLDEDPPEPAESRRDDLESDSSGECSSSDEDMEDPHGEDGPEPILDAARPAVRPSRPEDPGVPSTQTPRPTERQGPNDPQPAPHSVWSRLGARRPSCSPEQHGGKVARLQPPPTKAQPAR
modifications: 35S-radiolabelled
notes: recombinant fragment aa 1–138 of HSV-1 ICP27
With B1, the “Changes in 1H-15N correlation spectra of 15N-REF^156–218 upon addition” value in experiment [1] is “No significant changes”. For the same molecule, the “Binding to GST-REF2-I in pull down” value in the experiment on GST-REF2-I was “essentially the same as that of the full-length protein”.
